Here are results for 15 molecules from patent EP4640235A1 (Toray Industries, Inc., dated 2025).

Positions count from the first letter of the chain named.

This assay has as its target T1, human CAPRIN-1 protein expressed on cell membrane surfaces of human cancer cells (human, UniProt Q14444 2-709).
T1 construct: whole, on cells; Endogenous protein on human cancer cells; Flow cytometry was done without permeation of the cell membranes
T1 sequence (looked up): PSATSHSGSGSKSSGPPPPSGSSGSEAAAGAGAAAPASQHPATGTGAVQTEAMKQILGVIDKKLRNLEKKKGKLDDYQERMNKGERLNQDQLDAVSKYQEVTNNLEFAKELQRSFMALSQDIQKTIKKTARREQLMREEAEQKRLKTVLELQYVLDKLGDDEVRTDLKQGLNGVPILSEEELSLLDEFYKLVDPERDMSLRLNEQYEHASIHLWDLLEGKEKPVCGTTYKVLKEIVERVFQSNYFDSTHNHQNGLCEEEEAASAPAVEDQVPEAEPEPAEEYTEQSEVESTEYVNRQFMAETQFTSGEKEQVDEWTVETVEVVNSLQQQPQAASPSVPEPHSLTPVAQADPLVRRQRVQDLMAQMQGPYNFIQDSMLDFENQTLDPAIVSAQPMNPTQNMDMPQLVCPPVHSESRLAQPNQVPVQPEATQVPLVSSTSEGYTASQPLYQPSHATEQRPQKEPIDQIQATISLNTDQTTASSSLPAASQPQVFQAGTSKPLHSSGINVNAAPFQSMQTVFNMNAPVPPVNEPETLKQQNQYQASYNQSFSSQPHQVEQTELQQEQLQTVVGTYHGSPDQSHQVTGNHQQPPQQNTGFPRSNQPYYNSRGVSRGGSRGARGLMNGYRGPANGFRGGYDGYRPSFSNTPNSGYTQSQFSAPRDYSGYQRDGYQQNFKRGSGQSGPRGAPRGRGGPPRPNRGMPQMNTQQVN
Nature of the assay: flow cytometry on cancer cells. A general note: Flow cytometry measures light scatter and fluorescence of single cells or particles in a stream.

B1: anti-CAPRIN-1 antibody (a) (antibody, V domains shown)
VH: AVTLDESGGGLQMSRGGLSLVCKASGFDFSSYQMNWIRQAPGKGLEFVAAINKFGNSTGHGAAVKGRVTISRDNGQSTVRLQLNNLRAEDTAIYFCTKHAYGYCGSGTWCAAGEIDAWGHGTEVIVSS
VL: QAASTQPSSVSANPGETVEITCSGGGSYSYGWFQQKSPGSAPVTVIYYNNKRPSDIPSRFSGSKSGSTGTLTITGVQADDEAVYYCGSGDSTDTAVFGAGTTLTVLG
For B1, the binding result is listed as “binds”.

B2: anti-CAPRIN-1 antibody (o) (antibody, V domains shown)
VH: EVQLHQFGAELVKPGASVKISCKASGYTFTDYNMDWVKQSHGKSLEWIGDINPNYDSTSYNQKFKGKATLTVDKSSSTAYMELRSLTSEDTAVYYCARSRSYDYEGFAYWGQGTLVTVSA
VL: DIQMTQSPASLSASVGETVTITCRASGNIHNYLAWYQQKQGKSPQLLVYNAKTLADGVPSRFSGSGSGTQYSLKINSLQPEDFGSYYCQHFWSTLTFGAGTKLELKR
As to B2, the binding result is listed as “binds”.

B3: anti-CAPRIN-1 antibody (d) (antibody, V domains shown)
VH: QSLEESGGDLVKPGASLTLTCTASGFSFSGSYYMSWVRQAPGKGLEWIAYIYIGDGVTAYANWAKGRFTISKASSTTVTLQMTSLTAADTATYFCARGNKLWGPGTLVTVSS
VL: DVVMTQTPASVEAAVGGTVTIKCQASQSISSYLAWYQQKPGQPPKRLIYDASNLDSGVPSRFKGSGSGTDFTITISDLECADAATYYCQCTAVSSATIYGNAFGGGTEVVVK
With B3, the binding result is given as “binds”.

B4: anti-CAPRIN-1 antibody (j) (antibody, V domains shown)
VH: DAELVKPGASVKISCKASGYTFTDHSIHWVQQKPEQGLEWIGYISPGNGNIKYNEKFKGKATLTADKSSSTAYMQLNSLTSEDSAVYFCKRSLGRGGPYYFDYWGQGTTVTVSS
VL: DIVLTQAAPSLPVTPGESVSISCRSSKSLLHSNGNTYLYWFLQRPGQSPQLLIYRMSNLASGVPDRFSGSGSGTAFTLRISRVEAEDVGVYYCMQHREYPVTFGSGPN
B4: the binding result was “binds”.

B5: anti-CAPRIN-1 antibody (i) (antibody, V domains shown)
VH: GAELVRSGASVKMSCKASGYSFTDYNMYWVKQTPGQGLEWIGYIYPGNGGTNYNQKFKGKATLTADTSSSTAYMQISSLTSEDSAVYFCARDYDDGGYAMDYWGQGTTVTVSS
VL: DIQMTQSPASLSASVGETVTITCRASGNIHNYLTWYQQKQGKSPQLLVYNAKTLADGVPSRFSGSGSGTQYSLKINRLQPEDFGSYYCQHFWNIPWTFGGGTKLNSR
Turning to B5, the binding result is “binds”.

B6: anti-CAPRIN-1 antibody (z) (antibody, V domains shown)
VH: GPDLVKPGASVKISCKASGYSFTAYYMHWVKQSHGKSLEWIGRVNPNNGGTTYNQKFKGKAILTVDKSSSTAYMELRSLTFEDSAVYYCARRIYYGYFDYWGQGTTVTVSS
VL: AFFAVSLGQRATISCKASQSVDYDGDSYMNWYQQKPGQPPKLLIYVASNLESGVPARFSGSGSGTDFTLNIHPVEEEDAATYYCQQSNEDPYTFGGGTKLEIKQ
Turning to B6, the binding result was “binds”.

B7: anti-CAPRIN-1 antibody (af) (antibody, V domains shown)
VH: EVQLVESGGGLVQPGGSLRLSCAASGFSLSSHSLGWVRQAPGKGLEWIGDIRSGGSAYYANWAKGRFTISRDNSKNTLYLQMNSLRAEDTAVYYCTRTNGPSDLTNRLDLWGQGTLVTVSS
VL: QVLTQSPSSLSASVGDRVTINCQASQSLYNNENLAWFQQKPGKVPKRLIYGASTLASGVSSRFSGSGSGTEFTLTISSLQCEDFAIYYCLGEFSCGSADCFAFGGGTKVEIK
Turning to B7, the binding result was “binds”.

B8: anti-CAPRIN-1 antibody (ah) (antibody, V domains shown)
VH: B7 VH
VL: EQVLTQSPSSLSASVGDRVTINCQASQSLYNNENLAWFQQKPGKVPKRLIYGASTLASGVSSRFSGSGSGTEFTLTISNLQPEDFAIYYCLGEFSCGSADCFAFGGGTKVEIK
Turning to B8, the binding result is “binds”.

B9: anti-CAPRIN-1 antibody (ag) (antibody, V domains shown)
VH: B7 VH with Y94F
VL: B7 VL
Regarding B9, the binding result is recorded as “binds”.

B10: anti-CAPRIN-1 antibody (aj) (antibody, V domains shown)
VH: B7 VH
VL: B8 VL with Q2I, I87T
Regarding B10, the binding result was “binds”.

B11: anti-CAPRIN-1 antibody (b) (antibody, V domains shown)
VH: B7 VH with V2Q, Q3S
VL: B7 VL
Consider B11, for which the binding result was “binds”.

B12: anti-CAPRIN-1 antibody (ak) (antibody, V domains shown)
VH: B7 VH with Y94F
VL: B8 VL
B12: the binding result is reported as “binds”.

B13: anti-CAPRIN-1 antibody (ai) (antibody, V domains shown)
VH: B7 VH with Y94F
VL: B8 VL with Q2I, I87T
Regarding B13, the binding result is on record as “binds”.

B14: anti-CAPRIN-1 antibody (e) (antibody, V domains shown)
VH: AVTLDESGGGLQTPGGALSLVCKASGFTFSGYDMLWVRQAPGKGLEWVAGIGSTGGGTDYGAAVKGRATISRDNGQSTVRLQLNNLRAEDTATYYCAKVAGGCNSGYCRDSPGSIDAWGHGTEVIVS
VL: AVTQQPASVSANPGETVKITCSGGGSRNYYGWYQQKSPGSVPVTVIYYDDQRPSNIPSRFSGALSGSTSTLTITGVQADDEAVYFCGSADSNTYEGSFGAGTTLTVL
On to B14, for which the binding result is recorded as “binds”.

B15: anti-CAPRIN-1 antibody (c) (antibody, V domains shown)
VH: AVTLDESGGGLQTPGGGLSLVCKASGFTFSSFDMGWVRQAPGKGLEFVAQINDAGSRTWYATAVKGRATISRDNGQTTVRLQLNNLRAEDTGTYYCTRGSGYVGAGAIDAWGHGTEVIVS
VL: AALTQPSSVSANPGETVKITCSGGSGYYGWYQQQKSPGSAPVTVIYQNDKRPSDIPSRFSGSGSGSTNTLTITGVQAEDEAVYFCGRYDSTDSGIFGAGTTLTVL
In the case of B15, the binding result is listed as “binds”.
